The source of these data is patent publication US20150344570A1 (published 2015).

Assay [1] addresses T1, FcγRIa extracellular domain with C-terminal His tag (human, UniProt P12314 16-292).
T1 construct: extracellular domain; expressed in FreeStyle293 cells; analyte in Biacore; also called FcgRI; 1a
Put plainly: SPR (Biacore); He/Con_1a divided by He/Con_2b (FcγRIIb as reference). Background: SPR reads the build-up and loss of mass on a sensor chip optically.

Assay [2] deals with T1, FcγRIa extracellular domain with …. Put plainly: SPR (Biacore), captured antibody, FcγR as analyte; relative binding.
The target of assay [3] is T2, FcγRIIb extracellular domain with C-terminal His tag (human, UniProt P31994 43-217).
T2 construct: extracellular domain; expressed in FreeStyle293 cells; analyte in Biacore; also called FcgRIIb; 2b
T2 sequence (looked up): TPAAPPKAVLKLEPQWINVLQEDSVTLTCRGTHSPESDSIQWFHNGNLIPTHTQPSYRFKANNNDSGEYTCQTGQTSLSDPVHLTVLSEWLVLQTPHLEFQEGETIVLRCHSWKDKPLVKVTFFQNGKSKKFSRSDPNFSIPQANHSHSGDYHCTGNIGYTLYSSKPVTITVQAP
The description is as above.

For the next assay, the target named is T3, FcγRIa (human, UniProt P12314 16-292).
T3 construct: extracellular domain; Soluble extracellular domain with C-terminal His tag, expressed in FreeStyle293 cells; analyte in Biacore; also called FcgRI; CD64; not shown: His tag attached to the C terminus
T3 sequence (P12314 16-292): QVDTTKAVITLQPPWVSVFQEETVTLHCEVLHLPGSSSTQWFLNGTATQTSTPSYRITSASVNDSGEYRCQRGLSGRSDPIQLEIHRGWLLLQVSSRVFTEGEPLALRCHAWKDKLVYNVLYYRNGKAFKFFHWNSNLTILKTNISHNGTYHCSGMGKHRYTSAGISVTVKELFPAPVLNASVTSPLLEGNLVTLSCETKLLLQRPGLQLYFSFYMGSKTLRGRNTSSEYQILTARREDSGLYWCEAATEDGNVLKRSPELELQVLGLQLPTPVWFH
As to the kind of experiment: SPR (Biacore), antibody captured on antigen-peptide chip, FcγRIa as analyte; binding activity relative to control GpH7-A5/GpH7-B3/GpL16-k0 (HeCon Ab) x100. On the procedure: Analysis of interaction between objective antibody and the FcγR was carried out using Biacore T100 (GE Healthcare). HBS-EP+ (GE Healthcare) was used as the running buffer, and the measurement temperature was set to 25° C. Chips produced by immobilizing the antigen peptide by the amine coupling method to a Series S Sencor Chip CM5 (GE Healthcare), or alternatively, chips produced by allowing preliminarily biotinylated antigen peptides to interact with and immobilize onto a Series S Sensor Chip SA (certified) (GE Healthcare) were used. Antibodies of interest were captured onto an antigen peptide-immobilized chip, and allowed to interact to each FcγR diluted with running buffer. To regenerate and repeatedly use the chip, the antibodies captured on the chip were washed off by reacting 10 mM glycine-HCl, pH 1.5.

T1 sequence (P12314 16-292): as above

B1: GpH7-A5/GpH7-B3 variant D265_01G/GpL16-k0 (antibody, human IgG1, kappa)
heavy 1: not shown
heavy 2: not shown
light: DIVMTQSPLSLPVTPGEPASISCQASESLVHSNRNTYLHWYLQKPGQSPQLLIYKVSNRFSGVPDRFSGSGSGTDFTLKISRVEAEDVGVYYCSQNTHVPPTFGQGTKVEIERTVAAPSVFIFPPSDEQLKSGTASVVCLLNNFYPREAKVQWKVDNALQSGNSQESVTEQDSKDSTYSLSSTLTLSKADYEKHKVYACEVTHQGLSSPVTKSFNRGEC
notes: He Ab; IgG1, mutation in one H chain
Regarding B1, the “He_1a/2b (Ia/IIb)” value in assay [1] was 4.95 ratio. Besides, the He/Con_1a in assay [2] is 79.9 % of HeCon Ab (GpH7-A5/GpH7-B3/GpL16-k0 = 100). Besides, the He/Con_2b in assay [3] is 16.1 % of HeCon Ab (GpH7-A5/GpH7-B3/GpL16-k0 = 100).

B2: GpH7-A5/GpH7-B3 variant D265_04F/GpL16-k0 (antibody, human IgG1, kappa)
heavy 1: not shown
heavy 2: not shown
light: DIVMTQSPLSLPVTPGEPASISCQASESLVHSNRNTYLHWYLQKPGQSPQLLIYKVSNRFSGVPDRFSGSGSGTDFTLKISRVEAEDVGVYYCSQNTHVPPTFGQGTKVEIERTVAAPSVFIFPPSDEQLKSGTASVVCLLNNFYPREAKVQWKVDNALQSGNSQESVTEQDSKDSTYSLSSTLTLSKADYEKHKVYACEVTHQGLSSPVTKSFNRGEC
notes: as for B1
Consider B2, for which, in assay [1], the “He_1a/2b (Ia/IIb)” value was found to be 16.8 ratio. Moreover, the He/Con_1a in assay [2] was 53 % of HeCon Ab (GpH7-A5/GpH7-B3/GpL16-k0 = 100). Besides, in assay [3], the He/Con_2b is 3.2 % of HeCon Ab (GpH7-A5/GpH7-B3/GpL16-k0 = 100).

B3: GpH7-A5/GpH7-B3 variant Y300_19Q/GpL16-k0 (heterodimerized antibody, He Ab) (antibody, human IgG1, kappa)
heavy 1: not shown
heavy 2: not shown
light: DIVMTQSPLSLPVTPGEPASISCQASESLVHSNRNTYLHWYLQKPGQSPQLLIYKVSNRFSGVPDRFSGSGSGTDFTLKISRVEAEDVGVYYCSQNTHVPPTFGQGTKVEIERTVAAPSVFIFPPSDEQLKSGTASVVCLLNNFYPREAKVQWKVDNALQSGNSQESVTEQDSKDSTYSLSSTLTLSKADYEKHKVYACEVTHQGLSSPVTKSFNRGEC
notes: Anti-glypican-3 IgG1; alteration only in the GpH7-B3 (K439E) chain; other H chain is GpH7-A5 (D356K/H435R)
In the case of B3, the He/Con_1a with FcγRIa was 112 % of control (=100).

B4: GpH7-A5/GpH7-B3 variant D265_10E/GpL16-k0 (antibody, human IgG1, kappa)
heavy 1: not shown
heavy 2: not shown
light: DIVMTQSPLSLPVTPGEPASISCQASESLVHSNRNTYLHWYLQKPGQSPQLLIYKVSNRFSGVPDRFSGSGSGTDFTLKISRVEAEDVGVYYCSQNTHVPPTFGQGTKVEIERTVAAPSVFIFPPSDEQLKSGTASVVCLLNNFYPREAKVQWKVDNALQSGNSQESVTEQDSKDSTYSLSSTLTLSKADYEKHKVYACEVTHQGLSSPVTKSFNRGEC
notes: as for B1
B4: the “He_1a/2b (Ia/IIb)” value in assay [1] came to 2.66 ratio. Moreover, the He/Con_1a in assay [2] is 101 % of HeCon Ab (GpH7-A5/GpH7-B3/GpL16-k0 = 100). Moreover, the He/Con_2b in assay [3] is 38.2 % of HeCon Ab (GpH7-A5/GpH7-B3/GpL16-k0 = 100).

B5: GpH7-A5/GpH7-B3 variant D265_06M/GpL16-k0 (antibody, human IgG1, kappa)
heavy 1: not shown
heavy 2: not shown
light: DIVMTQSPLSLPVTPGEPASISCQASESLVHSNRNTYLHWYLQKPGQSPQLLIYKVSNRFSGVPDRFSGSGSGTDFTLKISRVEAEDVGVYYCSQNTHVPPTFGQGTKVEIERTVAAPSVFIFPPSDEQLKSGTASVVCLLNNFYPREAKVQWKVDNALQSGNSQESVTEQDSKDSTYSLSSTLTLSKADYEKHKVYACEVTHQGLSSPVTKSFNRGEC
notes: as for B1
In the case of B5, in assay [1], the “He_1a/2b (Ia/IIb)” value was found to be 7.57 ratio. Further, in assay [2], the He/Con_1a was 75.7 % of HeCon Ab (GpH7-A5/GpH7-B3/GpL16-k0 = 100). Further, in assay [3], the He/Con_2b is 10 % of HeCon Ab (GpH7-A5/GpH7-B3/GpL16-k0 = 100).

B6: GpH7-A5/GpH7-B3 variant D265_03V/GpL16-k0 (antibody, human IgG1, kappa)
heavy 1: not shown
heavy 2: not shown
light: DIVMTQSPLSLPVTPGEPASISCQASESLVHSNRNTYLHWYLQKPGQSPQLLIYKVSNRFSGVPDRFSGSGSGTDFTLKISRVEAEDVGVYYCSQNTHVPPTFGQGTKVEIERTVAAPSVFIFPPSDEQLKSGTASVVCLLNNFYPREAKVQWKVDNALQSGNSQESVTEQDSKDSTYSLSSTLTLSKADYEKHKVYACEVTHQGLSSPVTKSFNRGEC
notes: as for B1
For the molecule B6, the “He_1a/2b (Ia/IIb)” value in assay [1] is 17.3 ratio. In addition, in assay [2], the He/Con_1a was 55.7 % of HeCon Ab (GpH7-A5/GpH7-B3/GpL16-k0 = 100). Besides, in assay [3], the He/Con_2b is 3.2 % of HeCon Ab (GpH7-A5/GpH7-B3/GpL16-k0 = 100).

B7: GpH7-A5/GpH7-B3 variant D265_12R/GpL16-k0 (antibody, human IgG1, kappa)
heavy 1: not shown
heavy 2: not shown
light: DIVMTQSPLSLPVTPGEPASISCQASESLVHSNRNTYLHWYLQKPGQSPQLLIYKVSNRFSGVPDRFSGSGSGTDFTLKISRVEAEDVGVYYCSQNTHVPPTFGQGTKVEIERTVAAPSVFIFPPSDEQLKSGTASVVCLLNNFYPREAKVQWKVDNALQSGNSQESVTEQDSKDSTYSLSSTLTLSKADYEKHKVYACEVTHQGLSSPVTKSFNRGEC
notes: as for B1
Regarding B7, the “He_1a/2b (Ia/IIb)” value in assay [1] turned out to be 2.96 ratio. In addition, the He/Con_1a in assay [2] is 44.3 % of HeCon Ab (GpH7-A5/GpH7-B3/GpL16-k0 = 100). Further, the He/Con_2b in assay [3] is 15 % of HeCon Ab (GpH7-A5/GpH7-B3/GpL16-k0 = 100).

B8: GpH7-A5/GpH7-B3 variant D265_14T/GpL16-k0 (antibody, human IgG1, kappa)
heavy 1: not shown
heavy 2: not shown
light: DIVMTQSPLSLPVTPGEPASISCQASESLVHSNRNTYLHWYLQKPGQSPQLLIYKVSNRFSGVPDRFSGSGSGTDFTLKISRVEAEDVGVYYCSQNTHVPPTFGQGTKVEIERTVAAPSVFIFPPSDEQLKSGTASVVCLLNNFYPREAKVQWKVDNALQSGNSQESVTEQDSKDSTYSLSSTLTLSKADYEKHKVYACEVTHQGLSSPVTKSFNRGEC
notes: as for B1
For B8, the “He_1a/2b (Ia/IIb)” value in assay [1] came to 4.9 ratio. Also, the He/Con_1a in assay [2] was 78.5 % of HeCon Ab (GpH7-A5/GpH7-B3/GpL16-k0 = 100). Also, the He/Con_2b in assay [3] was 16 % of HeCon Ab (GpH7-A5/GpH7-B3/GpL16-k0 = 100).
